Measurements from patent publication US20090143241A1.

Biological target: ClpXP protease (E. coli ClpX6 with ClpP14) (E. coli) (UniProt P0A6H1)
Assay: cell-based or functional assay

ClpXP protease (E. coli ClpX6 with ClpP14) (E. coli), sequence (P0A6H1 whole entry, chain 1 of 2): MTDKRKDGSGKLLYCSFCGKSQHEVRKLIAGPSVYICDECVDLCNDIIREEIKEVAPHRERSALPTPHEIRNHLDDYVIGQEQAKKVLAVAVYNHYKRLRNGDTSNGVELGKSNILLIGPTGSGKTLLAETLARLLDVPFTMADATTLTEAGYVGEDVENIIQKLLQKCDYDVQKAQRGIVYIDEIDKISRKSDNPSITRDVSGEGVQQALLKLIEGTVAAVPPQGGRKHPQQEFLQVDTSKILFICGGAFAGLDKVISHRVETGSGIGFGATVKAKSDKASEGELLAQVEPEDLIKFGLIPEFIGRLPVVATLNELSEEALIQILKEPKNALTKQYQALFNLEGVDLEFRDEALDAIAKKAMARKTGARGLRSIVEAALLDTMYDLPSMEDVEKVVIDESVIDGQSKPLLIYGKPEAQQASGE
ClpXP protease (E. coli ClpX6 with ClpP14) (E. coli), sequence (P0A6G7 15-207, chain 2 of 2, further chain): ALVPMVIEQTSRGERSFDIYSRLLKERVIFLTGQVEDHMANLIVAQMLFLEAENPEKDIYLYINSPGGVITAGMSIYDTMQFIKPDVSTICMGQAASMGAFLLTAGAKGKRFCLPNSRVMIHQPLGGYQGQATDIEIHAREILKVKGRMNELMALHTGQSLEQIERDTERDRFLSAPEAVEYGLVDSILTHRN

λ O protein, N-terminally His6-tagged (from UniProt P03688 1-333)
half-life of λ O with ClpXP, no inhibitor: 35 min
